Consider 36 molecules from patent US6576753B1, “DNA encoding human leukotriene C4 synthase” (The Brigham and Women's Hospital, Inc., priority 1994, dated 2003).

“Also recorded” adds a separate entry of the source.

Data set [1] has as its system LTC4 synthase. The data set can be described thus: Conjugation of LTA4-ME with GSH by solubilized microsomes of COS cells transfected with wild-type or mutant LTC4 synthase. Conditions: for Function / Km / effect on Km of GSH: COS cell microsome; for conjugation function of transfected COS cell microsomes: compared to wild-type construct.
Procedure: OF THE EXPRESSED PROTEINS: COS-7 cells were transfected with either wild-type LTC4 synthase cDNA or the mutated LTC4 synthase cDNA by DEAE-dextran transfection (Lam et al., Proc. Natl. Acad. Sci. USA., 91:7663, 1994). Three days after transfection, the cells were harvested by treatment with trypsin and suspended in microsomal buffer (50 mM HEPES buffer pH 7.9 containing 2 mM EDTA and 10 mM β-mercaptoethanol) at a concentration of 5×10^6 cells/ml. The cells were lysed by sonication with a Branson microtip sonicator (Danbury, Conn.) at a setting of 7. Cell lysates were centrifuged at 100,000×g for 60 min at 4° C., and the pellets (microsomes) were resuspended in microsomal buffer and were solubilized by the addition of 0.4% Triton X-102, 0.4% sodium deoxycholate (DOC), and 10% glycerol and stirring at 4° C. for 45 min.
The function of each mutant enzyme as well as the wild-type enzyme was first screened by the incubation of 1-10 μl of solubilized COS cell microsomes with 10 mM GSH and 20 μM LTA4-ME in 200 μl 50 mM HEPES buffer containing 10 mM MgCl2, pH 7.6. The reactions were carried out at room temperature for 10 min and stopped by the addition of 3 vol methanol containing 200 ng prostaglandin B2 (PGB2) as an internal standard. LTC4-ME levels in the samples were determined with high performance liquid chromatography (HPLC).
Reverse phase (RP)-HPLC was carried out with a model 126 dual pump system and model 167 scanning UV detector (Beckman Instruments) controlled by an Gateway 2000 P4D66 computer equipped with Beckman System Gold software. Samples were applied to a 5-μm 4.6×250-mm C18 Ultrasphere reverse phase column (Beckman Instruments) equilibrated with a solvent of methanol/acetonitrile/water/acetic acid (10:15:100:0.2, v/v), pH 6.0 (solvent A). Immediately after the sample was injected, the column was eluted at a flow rate of 1 ml/min with a programmed concave gradient (System Cold curve 6) to 20% solvent A and 80% solvent B (pure methanol) over 0.2 min with continuation isocratically for 5.8 min. Beginning at 6 min, solvent B was increased linearly to 100% over 0.2 min and was maintained at this level for 7 min more. The ultraviolet absorbance at 280 nm and the ultraviolet spectra were recorded simultaneously. The retention times for PGB2 and LTC4-ME were 7.4 and 8.9 min, respectively. LTC4-ME was quantitated by calculating the ratio of the peak area to the area of the internal standard PGB2.
In data set [2] the test system is LTC4 synthase. The data set can be described thus: Enzyme kinetics of purified recombinant wild-type or mutant LTC4 synthase. It is filed as biochemical, human. Conditions: purified recombinant enzyme. The procedure: PURIFICATION AND KINETIC ANALYSIS OF SELECTED EXPRESSED PROTEINS: Recombinant LTC4 synthases were purified by S-hexyl GSH agarose affinity chromatography (Lam et al., Eur. J. Biochem., 238:606, 1996). Solubilized microsomes were loaded onto a 2.5-cm×1.5-cm open bed of S-hexyl GSH resin equilibrated with 50 mM HEPES, 1 mM EDTA, 5 mM β-mercaptoethanol, 0.1% Triton X-102, 10% glycerol, pH 7.6 (Buffer A) at 4° C. The column was washed sequentially with 5 volumes each of buffer A/0.3 M NaCl/20 mM GSH/0.1% DOC, buffer A/2.5 mM S-hexyl GSH/2.5 mM S-octyl GSH/0.1% DOC, and buffer A/0.1% DOC; and the enzyme was eluted with 5 fractions of 1 volume each of 15 mM probenecid in buffer A containing 0.1% DOC. The enzyme was purified nearly to homogeneity as determined by the presence in silver stained SDS-PAGE gels of a predominant 18-kDa protein band with a minor 34-kDa band; only the 18-kDa band interacted with anti-LTC4 synthase antibody on immunoblot analysis. After sequential concentration and dilution with a Microsep 10K centrifugal concentrator (Filtron Technology Corp., Northborough, Mass.) to remove probenecid, the protein concentration was estimated by staining a SDS-PAGE gel of the purified enzyme and a standard amount of lysozyme resolved in the same gel with Coomassie blue dye and comparing their intensities.
To examine the enzyme kinetics of recombinant wild-type or mutant LTC4 synthase, 3-100 ng portions of purified enzyme were incubated in 200 μl of HEPES buffer, pH 7.6, containing 10 mM MgC'2 with either 20 μM LTA4-ME and various concentration of GSH or with 10 mM GSH and various concentrations of LTA4-ME for 2 min at room temperature. The reactions were terminated by the addition of 3 vol of methanol containing 200 ng PGB2. Samples were then analyzed for LTC4-ME by RP-HPLC.

As a reminder, the Km is the substrate concentration at which the rate is half of its maximum. Regarding Y97F: LTC4 synthase point mutant, the Function with LTC4 synthase [1] was 100 % of WT. The Km with LTC4 synthase [1] (read-out: Km GSH) came to 16500 µM; in the data set on LTC4 synthase [1] (read-out: Km LTA4-ME) it was 16.5 µM.

For E76Q: LTC4 synthase point mutant, the “conjugation function of transfected COS cell microsomes” value (from here on “conjugation function”) in the data set on LTC4 synthase [1] was “did not affect the function”.

In the case of Y59F: LTC4 synthase point mutant, the Function in the data set with LTC4 synthase [1] is listed as 100 % of WT. The Km with LTC4 synthase [1] (read-out: Km GSH) was 15500 µM; in the data set with LTC4 synthase [1] (read-out: Km LTA4-ME), 19 µM.

In the case of H75Q: LTC4 synthase point mutant, the “conjugation function” value in the data set with LTC4 synthase [1] is “did not affect the function”.

On to C82V: LTC4 synthase point mutant, for which the “Vmax LTC4-ME” value in the data set on LTC4 synthase [2] came out at 37.7 µmol/min/mg. In addition, the Km in the data set with LTC4 synthase [2] (read-out: Km GSH) was found to be 900 µM; in the data set with LTC4 synthase [2] (read-out: Km LTA4-ME), 6.3 µM; in the data set with LTC4 synthase [1] (read-out: Km GSH) it was 2000 µM; with LTC4 synthase [1] (read-out: Km LTA4-ME), 10.9 µM. For the same molecule, the Function in the data set with LTC4 synthase [1] is listed as 100 % of WT. The “conjugation function” value with LTC4 synthase [1] was “do not affect conjugation function”; in the data set with LTC4 synthase [1] (listed as C82 to V82) it was “None of the mutations affected conjugation function”.

Regarding A52S: LTC4 synthase point mutant, in the data set with LTC4 synthase [1], the Function is given as 80 % of WT and the “effect on Km of GSH” value is reported as “did exhibit an increase in Km for GSH”. Moreover, in the data set with LTC4 synthase [1] (read-out: Km GSH), the Michaelis-Menten constant (Km) stood at 30000 µM. Also, the Km in the data set with LTC4 synthase [1] (read-out: Km LTA4-ME) was found to be 4.5 µM.

With S100V: LTC4 synthase point mutant, the “conjugation function” value with LTC4 synthase [1] is on record as “did not affect the function”.

Take V69T: LTC4 synthase point mutant: in the data set with LTC4 synthase [1], the Function was 100 % of WT. Moreover, the Km with LTC4 synthase [1] (read-out: Km GSH) is 2000 µM; with LTC4 synthase [1] (read-out: Km LTA4-ME), 19 µM.

Regarding “N55A: LTC4 synthase point mutant of the consensus N-glycosylation site”, in the data set with LTC4 synthase [1], the Function is listed as 85 % of WT and the “effect on Km of GSH” value is on record as “increase the Km of GSH”. Besides, the Km with LTC4 synthase [1] (read-out: Km GSH) was found to be 10700 µM. For the same molecule, the Km in the data set with LTC4 synthase [1] (read-out: Km LTA4-ME) was found to be 7.7 µM.

For E47Q: LTC4 synthase point mutant, the “conjugation function” value with LTC4 synthase [1] is on record as “did not attenuate the conjugation function; also recorded: did not affect the function”.

Consider R51K: LTC4 synthase point mutant, for which, in the data set on LTC4 synthase [1], the Function is listed as 100 % of WT. Besides, in the data set on LTC4 synthase [1], the “conjugation function” value is “activity was not diminished”. Further, the Km with LTC4 synthase [1] (read-out: Km GSH) came to 2300 µM; in the data set with LTC4 synthase [1] (read-out: Km LTA4-ME) it was 9.4 µM.

Take Y50F: LTC4 synthase point mutant: in the data set on LTC4 synthase [1], the “conjugation function” value is “did not affect the function”.

S111V: LTC4 synthase point mutant: the “conjugation function” value in the data set on LTC4 synthase [1] is “did not affect the function”.

For V69S: LTC4 synthase point mutant, the “conjugation function” value in the data set on LTC4 synthase [1] is given as “did not affect the function”.

On to Q53N: LTC4 synthase point mutant, for which the “conjugation function” value in the data set on LTC4 synthase [1] was “did not affect the function”.

With V54Q: LTC4 synthase point mutant, in the data set on LTC4 synthase [1], the “conjugation function” value was “did not affect the function”.

In the case of R48S: LTC4 synthase point mutant, the “conjugation function” value in the data set on LTC4 synthase [1] is “did not attenuate the conjugation function; also recorded: did not affect the function”.

F46Y: LTC4 synthase point mutant: the “conjugation function” value with LTC4 synthase [1] was “did not affect the function”.

As to L39F: LTC4 synthase point mutant, the “conjugation function” value in the data set with LTC4 synthase [1] was “did not affect the function”.

As for E45Q: LTC4 synthase point mutant, the “conjugation function” value in the data set with LTC4 synthase [1] is “did not attenuate the conjugation function; also recorded: did not affect the function”.

Take R51H: the “Vmax LTC4-ME” value with LTC4 synthase [2] is 20.0 µmol/min/mg. The Km with LTC4 synthase [2] (read-out: Km GSH) was 1500 µM; in the data set with LTC4 synthase [2] (read-out: Km LTA4-ME), 6.3 µM; in the data set on LTC4 synthase [1] (read-out: Km GSH), 3800 µM; with LTC4 synthase [1] (read-out: Km LTA4-ME) it was 6.4 µM. The Function in the data set with LTC4 synthase [1] was 100 % of WT. Moreover, in the data set on LTC4 synthase [1], the “conjugation function” value is “activity was not diminished”.

As for V49F: LTC4 synthase point mutant, the Function in the data set on LTC4 synthase [1] is recorded as 100 % of WT. For the same molecule, the Km was 9200 µM in the data set with LTC4 synthase [1] (read-out: Km GSH) and 10 µM with LTC4 synthase [1] (read-out: Km LTA4-ME).

For T66V: LTC4 synthase point mutant, in the data set on LTC4 synthase [1], the “conjugation function” value was “did not affect the function”.

For E58Q: LTC4 synthase point mutant, the “conjugation function” value in the data set on LTC4 synthase [1] is listed as “did not attenuate the conjugation function”.

Consider R104S: LTC4 synthase point mutant, for which the “conjugation function” value in the data set with LTC4 synthase [1] is given as “did not affect the function”.

Regarding L62T: LTC4 synthase point mutant, the Function in the data set on LTC4 synthase [1] was 100 % of WT. The “conjugation function” value in the data set with LTC4 synthase [1] is reported as “did not affect the function”. Also, the Km came out at 2500 µM in the data set with LTC4 synthase [1] (read-out: Km GSH) and 6.7 µM in the data set on LTC4 synthase [1] (read-out: Km LTA4-ME).

As to R99S: LTC4 synthase point mutant, the “conjugation function” value with LTC4 synthase [1] is listed as “did not affect the function”.

For R92S: LTC4 synthase point mutant, the “conjugation function” value with LTC4 synthase [1] is “did not affect the function”.

With Y109I: LTC4 synthase point mutant, in the data set with LTC4 synthase [1], the Function is 100 % of WT and the “conjugation function” value was “did not affect the function”. Moreover, the Km in the data set with LTC4 synthase [1] (read-out: Km GSH) turned out to be 1600 µM. Further, the Km with LTC4 synthase [1] (read-out: Km LTA4-ME) was found to be 20 µM.

For the molecule F60Y: LTC4 synthase point mutant, the “conjugation function” value in the data set with LTC4 synthase [1] is given as “did not affect the function”.

For “WT: recombinant wild-type human LTC4 synthase (SEQ ID NO.:2)”, the “Vmax LTC4-ME” value in the data set on LTC4 synthase [2] worked out at 51.3 µmol/min/mg. For the same molecule, the Km in the data set with LTC4 synthase [2] (read-out: Km GSH) was 1400 µM; in the data set on LTC4 synthase [2] (read-out: Km LTA4-ME), 7.4 µM; in the data set on LTC4 synthase [1] (read-out: Km GSH), 500 to 2000 µM; with LTC4 synthase [1] (read-out: Km LTA4-ME) it was 6 to 20 µM. For the same molecule, the Function in the data set on LTC4 synthase [1] is on record as 100 % of WT.

On to C56S: LTC4 synthase point mutant, for which the figures for the “conjugation function” value in the data set with LTC4 synthase [1] and with LTC4 synthase [1] (listed as C56 to S56) were “do not affect conjugation function” and “None of the mutations affected conjugation function”, respectively.

Take R51I: LTC4 synthase point mutant: the “conjugation function” value is “do not show conjugation activity” with LTC4 synthase [1] and “abolished the functional activity” in the data set with LTC4 synthase [1] (listed as Arg 51 to isoleucine).

B1: deletion of the charged amino acids K2 and D3 at the amino terminus: LTC4 synthase deletion mutant (protein, UniProt Q16873 1-150, looked up, variant K2* D3*)
Leukotriene C4 synthase: MEVALLAAVTLLGVLLQAYFSLQVISARRAFRVSPPLTTGPPEFERVYRAQVNCSEYFPLFLATLWVAGIFFHEGAAALCGLVYLFARLRYFQGYARSAQLRLAPLYASARALWLLVALAALGLLAHFLPAALRAALLGRLRTLLPWA
For the molecule B1, the “conjugation function” value in the data set with LTC4 synthase [1] is “Neither the deletion of the charged amino acids K2 and D3 at the amino terminus nor the deletion of the 14 amino acids at the carboxyl terminus altered the function”.

B2: Q25K: LTC4 synthase point mutant (protein, UniProt Q16873 1-150, looked up, variant Q25K)
Leukotriene C4 synthase: MKDEVALLAAVTLLGVLLQAYFSLKVISARRAFRVSPPLTTGPPEFERVYRAQVNCSEYFPLFLATLWVAGIFFHEGAAALCGLVYLFARLRYFQGYARSAQLRLAPLYASARALWLLVALAALGLLAHFLPAALRAALLGRLRTLLPWA
Take B2: the “conjugation function” value in the data set with LTC4 synthase [1] is reported as “did not affect the function”.

B3: R51I/WT: recombinant pseudo-heterodimer of R51I LTC4 synthase monomer and wild-type monomer (protein, UniProt Q16873 1-150, looked up, variant R51I)
Leukotriene C4 synthase: MKDEVALLAAVTLLGVLLQAYFSLQVISARRAFRVSPPLTTGPPEFERVYIAQVNCSEYFPLFLATLWVAGIFFHEGAAALCGLVYLFARLRYFQGYARSAQLRLAPLYASARALWLLVALAALGLLAHFLPAALRAALLGRLRTLLPWA
modifications: heterodimer with wild-type monomer
On to B3, for which, in the data set with LTC4 synthase [1], the Function is on record as 90 % of WT and the “conjugation function” value is “retained enzymatic function”. Besides, the Michaelis-Menten constant (Km) in the data set with LTC4 synthase [1] (read-out: Km GSH) was 3200 µM. Also, the Km with LTC4 synthase [1] (read-out: Km LTA4-ME) came to 6.5 µM.
